Laboratory results reported in PMC5910400 (2018).

Key:
[1] = molecular target: P1156:G4S:P1243 two-warhead evasin (Ixodes ricinus | Amblyomma americanum, UniProt V5HBW0;A0A0C9S461); test: BLI
[2] = molecular target: P1243:G4S:P1156 two-warhead evasin (Amblyomma americanum | Ixodes ricinus, UniProt A0A0C9S461;V5HBW0); test: BLI

Binder | Kd [1] [nM] | Kd [2] [nM]
CCL21 (ligand) SDGGAQDCCLKYSQRKIPAKVVRSYRKQEPSLGCSIPAILFLPRKRSQAELCADPKELWVQQLMQHLDKTPSPQKPAQGCRKDRGASKTGKKGKGSKGCKRTERSQTPKGP | 29 | 
CCL18 (protein) AQVGTNKELCCLVYTSWQIPQKFIVDYSETSPQCPKPGVILLTKRGRQICADPNKKWVQKYISDLKLNA | 0.001 | 0.3
CCL3 (ligand) SLAADTPTACCFSYTSRQIPQNFIADYFETSSQCSKPGVIFLTKRSRQVCADPSEEWVQKYVSDLELSA |  | 25
CCL27 (protein) FLLPPSTACCTQLYRKPLSDKLLRKVIQVELQEADGDCHLQAFVLHLAQRSICIHPQNPSLSQWFEHQERKLHGTLPKLNFGMLRKMG | 17 | 23
CCL14 (protein) TKTESSSRGPYHPSECCFTYTTYKIPRQRIMDYYETNSQCSKPGIVFITKRGHSVCTNPSDKWVQDYIKDMKEN | 1.1 | 2.1
CCL11 (protein) not shown | 1.7 | 5.1
CCL5 (ligand) SPYSSDTTPCCFAYIARPLPRAHIKEYFYTSGKCSNPAVVFVTRKNRQVCANPEKKWVREYINSLEMS | 2.6 | 3.4
CCL15 (protein) QFTNDAETELMMSKLPLENPVVLNSFHFAADCCTSYISQSIPCSLMKSYFETSSECSKPGVIFLTKKGRQVCAKPSGPGVQDCMKKLKPYSI | 12 | 11
CCL19 (protein) GTNDAEDCCLSVTQKPIPGYIVRNFHYLLIKDGCRVPAVVFTTLRGRQLCAPPDQPWVERIIQRLQRTSAKMKRRSS | 3 | 2.5
CCL8 (protein) QPDSVSIPITCCFNVINRKIPIQRLESYTRITNIQCPKEAVIFKTKRGKEVCADPKERWVRDSMKHLDQIFQNLKP | 84 | 93
CCL16 (protein) QPKVPEWVNTPSTCCLKYYEKVLPRRLVVGYRKALNCHLPAIIFVTKRNREVCTNPNDDWVQEYIKDPNLPLLPTRNLSTVKIITAKNGQPQLLNSQ | 0.65 | 0.93
CCL13 (ligand) not shown | 0.7 | 1.5
CCL23 (ligand) RVTKDAETEFMMSKLPLENPVLLDRFHATSADCCISYTPRSIPCSLLESYFETNSECSKPGVIFLTKKGRRFCANPSDKQVQVCMRMLKLDTRIKTRKN | 0.098 | 0.37
CCL24 (protein) VVIPSPCCMFFVSKRIPENRVVSYQLSSRSTCLKAGVIFTTKKGQQFCGDPKQEWVQRYMKNLDAKQKKASPRARAVAVKGPVQRYPGNQTTC | 4.5 | 9.4
CCL4L1 (protein) APMGSDPPTACCFSYTARKLPRNFVVDYYETSSLCSQPAVVFQTKRGKQVCADPSESWVQEYVYDLELN | 15 | 14
CCL4 (protein) APMGSDPPTACCFSYTARKLPRNFVVDYYETSSLCSQPAVVFQTKRSKQVCADPSESWVQEYVYDLELN | 12 | 12
